Reference: paper PMC3406030, “Structure of an MmyB-Like Regulator from C. aurantiacus, Member of a New Transcription Factor Family Linked to Antibiotic Metabolism in Actinomycetes” (PLoS ONE, 2012)

Key:
[1] = target: MmyB-like transcription regulator MltR (Caur_2278) from Chloroflexus aurantiacus (Chloroflexus aurantiacus J-10-fl) (UniProt A9WGF5); assay: crystal structure; SeMet MltR, tag removed, 11.1 mg/ml; 0.2M NaCl, 10.5% polyethylene glycol 8000, 0.1M CHES pH 9.1, 277 K; space group C2, three monomers (1.5 dimers) in the asymmetric unit; bound myristic acid
[2] = target: T1, MltR (Caur_2278) (Chloroflexus aurantiacus, UniProt A9WGF5); assay: X-ray crystallography (SAD, […] Å); type: binding; details: co-purified ligand, none added; identity tentative, modelled from electron density (related fatty acid, mixture or PEG fragment not excluded); PAS-like C-terminal domain; pH 9.1, 277 K
T1 construct: full length, 291 residues, SeMet derivative; N-terminal His tag cut by TEV leaving Gly0; expressed in E. coli; dimer in crystal, monomer by size exclusion
T1 sequence (A9WGF5 1-291): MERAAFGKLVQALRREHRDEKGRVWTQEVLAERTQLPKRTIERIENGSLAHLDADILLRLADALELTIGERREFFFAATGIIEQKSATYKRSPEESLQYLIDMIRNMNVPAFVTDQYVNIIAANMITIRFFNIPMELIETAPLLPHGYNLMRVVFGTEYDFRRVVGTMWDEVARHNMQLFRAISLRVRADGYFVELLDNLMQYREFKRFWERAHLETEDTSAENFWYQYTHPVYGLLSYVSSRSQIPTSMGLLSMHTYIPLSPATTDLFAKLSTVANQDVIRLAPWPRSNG

| Molecule | stoichiometry N [1] | X-ray crystallography (SAD, 2.3 Å) [2] |
| --- | --- | --- |
| MmyB-like transcription regulator MltR (Caur_2278) from Chloroflexus aurantiacus (from UniProt A9WGF5 1-291) (natural protein) | 2 |  |
| CCCCCCCCCCCCCC(=O)O [MYR, myristic acid] |  | additional electron density in the putative ligand-binding site clearly indicated the presence of a fatty acid-type ligand |
